Laboratory results reported in patent US20140031283A1, “ANTICANCER FUSION PROTEIN” (ADAMED SP. Z O.O., priority 2011, published 2014).
Where “and” joins values, the source holds several entries; their conditions need not be identical. Identical values can stand only once.

What was measured:
SW620 = test: MTT cytotoxicity test, SW620 (human colorectal cancer); format: cell-based; conditions: Table 4, mean/SD part
Source text: (§1) MTT assay is a colorimetric assay used to measure proliferation, viability and cytotoxicity of cells. It consists in decomposition of a yellow tetrazolium salt MTT (4,5-dimethyl-2-thiazolyl)-2,5-diphenyltetrazolium bromide) to the water-insoluble purple dye formazan by mitochondrial enzyme succinate-tetrazolium reductase 1. MTT reduction occurs only in living cells. Data analysis consists in determining IC50 concentration of the protein (in ng/ml), at which the 50% reduction in the number of cells occurs in the population treated compared to control cells. Results were analyzed using GraphPad Prism 5.0 software. The test was performed according to the literature descriptions (Cells, J E, (1998). Cell Biology, a Laboratory Handbook, second edition, Academic Press, San Diego; Yang, Y., Koh, L W, Tsai, J H., (2004); Involvement of viral and chemical factors with oral cancer in Taiwan, Jpn J Clin Oncol, 34 (4), 176-183). Cell culture medium was diluted to a defined density (10^4-10^5 cells per 100 μl). Then 100 μl of appropriately diluted cell suspension was applied to a 96-well plate in triplicates. […] After stirring, the absorbance was measured at 570 nm (reference filter 690 nm). […]

HepG2 = test: MTT cytotoxicity test, HepG2 (human liver hepatoma); format: cell-based; conditions: Table 4, mean/SD part
Source text: as §1

A549 = test: MTT cytotoxicity test, A549 (human lung cancer); format: cell-based
Source text: (§2) MTT assay is a colorimetric assay used to measure proliferation, viability and cytotoxicity of cells. It consists in decomposition of a yellow tetrazolium salt MTT (4,5-dimethyl-2-thiazolyl)-2,5-diphenyltetrazolium bromide) to the water-insoluble purple dye formazan by mitochondrial enzyme succinate-tetrazolium reductase 1. MTT reduction occurs only in living cells. Data analysis consists in determining IC50 concentration of the protein (in ng/ml), at which the 50% reduction in the number of cells occurs in the population treated compared to control cells. Results were analyzed using GraphPad Prism 5.0 software. The test was performed according to the literature descriptions (Cells, J E, (1998). Cell Biology, a Laboratory Handbook, second edition, Academic Press, San Diego; Yang, Y., Koh, L W, Tsai, J H., (2004); Involvement of viral and chemical factors with oral cancer in Taiwan, Jpn J Clin Oncol, 34 (4), 176-183). Cell culture medium was diluted to a defined density (10^4-10^5 cells per 100 μl). Then 100 μl of appropriately diluted cell suspension was applied to a 96-well plate in triplicates. Thus prepared cells were incubated for 24 h at 37° C. in 5% or 10% CO2, depending on the medium used, and then to the cells (in 100 μl of medium) further 100 μl of the medium containing various concentrations of tested proteins were added. In the case of combination hTRAIL114-281 and p21WAF effector protein, 100 μl of the medium containing mixture of hTRAIL114-281 and p21WAF effector protein in molar ratio 1:1 was added. After incubation of the cells with tested proteins over the period of next 72 hours, which is equivalent to 3-4 times of cell division, the medium with the test protein was added with […] of MTT working solution [5 mg/ml], and incubation was continued for 3 h at 37° C. in 5% CO2. Then the medium with MTT solution was removed, and formazan crystals were dissolved by adding 100 μl of DMSO. After stirring, the absorbance was measured at 570 nm (reference filter 690 nm).
(§3) The results of in vitro cytotoxicity tests are summarized as IC50 values (ng/ml), which corresponds to the protein concentration at which the cytotoxic effect of fusion proteins is observed at the level of 50% with respect to control cells treated only with solvent. Each experiment represents the average value of at least two independent experiments performed in triplicates. As a criterion of lack of activity of protein preparations the IC50 limit of 2000 ng/ml was adopted.

MES-SA = test: MTT cytotoxicity test, MES-SA (human uterine sarcoma); format: cell-based
Source text: as §2, §3

MES-SA/Dx5 = test: MTT cytotoxicity test, MES-SA/Dx5 (multidrug-resistant human uterine sarcoma); format: cell-based
Source text: as §2, §3
Cells selected for this test included tumor cell lines that are naturally resistant to TRAIL protein (the criterion of natural resistance to TRAIL: IC50 for TRAIL protein >2000), as well as tumor cell lines sensitive to TRAIL protein and resistant to doxorubicin line MES-SA/DX5 as a cancer line resistant to conventional anticancer medicaments.

SK-MES-1 = test: MTT cytotoxicity test, SK-MES-1 (human lung cancer); format: cell-based
Source text: as §2, §3

MCF10A = test: MTT cytotoxicity test, MCF10A (mammary epithelial cells); format: cell-based
Source text: as §2, §3

Panc-1 = test: MTT cytotoxicity test, Panc-1 (human pancreatic cancer); format: cell-based; conditions: Table 4, mean/SD part
Source text: as §1

PLC/PRF/5 = test: MTT cytotoxicity test, PLC/PRF/5 (human liver hepatoma); format: cell-based; conditions: Table 4, mean/SD part
Source text: as §1

NCI-H460 = conditions: Table 4, mean/SD part
Method: (§4) Data analysis consists in determining IC50 concentration of the protein (in ng/ml), at which the 50% reduction in the number of cells occurs in the population treated compared to control cells. Results were analyzed using GraphPad Prism 5.0 software. […] Cell culture medium was diluted to a defined density (10^4-10^5 cells per 100 μl). Then 100 μl of appropriately diluted cell suspension was applied to a 96-well plate in triplicates. Thus prepared cells were incubated for 24 h at 37° C. in 5% or 10% CO2, depending on the medium used, and then to the cells (in 100 μl of medium) further 100 μl of the medium containing various concentrations of tested proteins were added. […] After incubation of the cells with tested proteins over the period of next 72 hours, which is equivalent to 3-4 times of cell division, the medium with the test protein was added with 20 ml of MTT working solution [5 mg/ml], and incubation was continued for 3 h at 37° C. in 5% CO2. Then the medium with MTT solution was removed, and formazan crystals were dissolved by adding 100 μl of DMSO. After stirring, the absorbance was measured at 570 nm (reference filter 690 nm).

MDA-MB-231 = test: MTT cytotoxicity test, MDA-MB-231 (human breast cancer); format: cell-based; conditions: Table 4, mean/SD part
Source text: as §1

UM-UC-3 = test: MTT cytotoxicity test, UM-UC-3 (human bladder cancer); format: cell-based; conditions: Table 4, mean/SD part
Source text: as §1

NIH: OVCAR-3 = test: MTT cytotoxicity test, NIH: OVCAR-3 (human ovarian cancer); format: cell-based; conditions: Table 4, mean/SD part
Source text: as §1

[1] = continuous incubation over 72 h, test MTT

Method for HCT-116: as §4

Molecule	SW620 mean (IC50) (SW620) [µg/mL]	HepG2 mean (IC50) (HepG2) [µg/mL]	A549 mean (IC50) (A549; Table 4, mean/SD part, listed as Ex. 23^a)	A549 IC50 (A549; [1]) [µg/mL]	MES-SA IC50 (MES-SA; [1]) [µg/mL]	MES-SA/Dx5 IC50 (MES-SA/Dx5; [1]) [µg/mL]	SK-MES-1 IC50 (SK-MES-1; [1]) [µg/mL]	MCF10A mean (IC50) (MCF10A; Table 4, mean/SD part) [µg/mL]	MCF10A IC50 (MCF10A; [1]) [µg/mL]	PANC-1 mean (IC50) (Panc-1) [µg/mL]	PLC/PRF/5 mean (IC50) (PLC/PRF/5) [µg/mL]	NCI-H460 mean (IC50) (NCI-H460) [µg/mL]	HCT116 IC50 (HCT-116; [1]) [µg/mL]	MDA-MB-231 mean (IC50) (MDA-MB-231) [µg/mL]	UM-UC-3 mean (IC50) (UM-UC-3) [µg/mL]	OVCAR-3 mean (IC50) (NIH: OVCAR-3) [µg/mL]	MES-SA mean (IC50) (MES-SA; Table 4, mean/SD part) [µg/mL]	MES-SA/Dx5 mean (IC50) (MES-SA/Dx5; Table 4, mean/SD part) [µg/mL]	SK-MES-1 mean (IC50) (SK-MES-1; Table 4, mean/SD part) [µg/mL]	HCT116 mean (IC50) (HCT-116; Table 4, mean/SD part) [µg/mL]
Ex. 23: fusion protein: 13-amino acid inhibitor of RasGAP-Aurora B interactions with 8 arginine residues at N-terminus of TRAIL121-281, uPA and MMP sites (protein, synthesized, a fusion protein comprising: a fragment of TRAIL protein, a peptide acting as an inhibitor of interactions RasGAP - Aurora B, cleavage sites recognized by uPA and MMP, an arginine transporting domain and a cysteine stabilizing residue.) KWVVSHARLMYSFRRRRRRRRRVVRPLGLAGCRVAAHITGTRGRSNTLSSPNSKNEKALGRKINSWESSRSGHSFLSNLHLRNGELVIHEKGFYYIYSQTYFRFQEEIKENTKNDKQMVQYIYKYTSYPDPILLMKSARNSCWSKDAEYGLYSIYQGGIFELKENDRIFVSVTNEHLIDMDHEASFFGAFLVG	0.01192	0.01049	0.2784 µg/mL and 0.3589 µg/mL	0.2387	0.00061	0.00013	0.00042	0.005196	0.00598	0.0229	0.006821	0.00711	0.00148							
Ex. 3: fusion protein: 8-amino acid fragment of human fetoprotein at C-terminus of TRAIL121-281, MMP and uPA cleavage sites (protein, synthesized, a fusion protein comprising: a fragment of TRAIL protein, a fragment of human fetoprotein and cleavage sites recognized by uPA and MMP., fusion protein: 8-amino acid fragment of human fetoprotein at C-terminus of TRAIL121-281, MMP and uPA cleavage sites) RVAAHITGTRGRSNTLSSPNSKNEKALGRKINSWESSRSGHSFLSNLHLRNGELVIHEKGFYYIYSQTYFRFQEEIKENTKNDKQMVQYIYKYTSYPDPILLMKSARNSCWSKDAEYGLYSIYQGGIFELKENDRIFVSVTNEHLIDMDHEASFFGAFLVGPLGLAGRVVREMTPVNPG														0.02086	0.0204	0.02751	0.03618	0.03431	0.007755	0.041
